The test system of this data set is Y. lipolytica JMY2900. As to the kind of experiment: qPCR of putative FDH gene transcription upon induction with sodium formate. The data set is classed as cell-based, Yarrowia lipolytica. The conditions noted are these: YNB with 0.5% sodium formate, 6 h, 28° C., vs absence of formate; qPCR normalised to actin. As to the method:
FIG. 3: Transcription levels of the FDH genes of Yarrowia lipolytica W29 measured by qPCR, normalised to actin (ACT1) expression. Yarrowia lipolytica was grown in YNB supplemented with 1% glucose and 0.5% yeast extract at 15 h at 28° C., before being washed and transferred into YNB with 0.5% of sodium formate for induction and grown for 6 h.
The inducibility of the putative FDH genes with formate was then tested by qPCR. YALI0E14256g1_1 and the nine putative FDH with the highest % identity to YALI0E14256g1_1 were selected for testing. Y. lipolytica JMY2900 was cultured in YNB media supplemented with 1% glucose and 0.5% yeast extract for 15 h at 28° C. Cells were washed with distilled water and cultured in fresh liquid YNB media supplemented with 0.5% sodium formate at 28° C. with agitation at 160 rpm, before being harvested at 6 h post-inoculated. Cells were frozen in liquid nitrogen and stored at −80° C. RNA was subsequently extracted using the RNeasy Mini Kit (Qiagen), and 2 μg was treated with DNAse (Ambion; Life Science Technologies, Saint-Aubain, France). cDNA was synthesised using the Maxima First Strand cDNA synthesis kit (Thermo Fischer Scientific, Villebon sur Yvette, France). qPCR was then performed using the SYBRgreen mastermix (Thermo Fischer Scientific) with gene-specific primers designed using Primer3 software. Relative expression levels were calculated using ΔCT and ΔΔCT methods. Expression levels were normalised to actin.

B1: Yali0F13937: putative Y. lipolytica FDH gene; promoter region SEQ ID NO: 6 (1 Kb) and 22 (1.5 Kb) (nucleic acid, listed as Yarrowia lipolytica)
DNA: ATGAAGGTCCTTCTTATTCTCTATGATGCCGGCTCTCACGCTAAGGATGAGCCCAAGCTCCTTGGATGCACCGAGAACGAGCTCGGTATCCGAGACTGGCTCGAGTCTCAGGGCCATACTCTCGTTACCACCTCTTCCAAGGATGGCGCCGACTCTGTGCTTGACAAGGAGATTGTTGACGCCGATGTAGTCATCACTACCCCCTTCCACCCTGGCTACATCAACAAGGAGCGAATCGACAAGGCCAAGAAGCTCAAGATCTGCATCACTGCCGGTGTGGGCTCGGACCACGTTGATCTCGATGCTGCCAACGCTCGAGATATCGCTGTTCTGGAAGTCACTGGTTCTAATGTCCAGTCCGTCGCTGAGCATGTTGTCATGACTATGCTCGTTCTGGTCCGAAACTTTGTCCCCGCCCACGAGCAAATCATCTCTGGCGGCTGGGATGTTGCTGCTGTCGCCAAGGACTCCTACGATCTCGAGGGTAAGGTCATCGGTACCGTTGGTGGCGGCCGAATCGGCCAGCGTGTCCTCAAGCGATGCAAGCCCTTCGACCCCATGGAAATGCTCTACTACGACTACCAGCCCATGCCTGCCGACGTCGAAAAGGAGATTGGTTGCCGACGAGTTGAGTCTCTGGAGGAGATGCTCTCTCTGTGTGATGTCGTGACCATCAATTGCCCTCTGCACGCCTCCACCAAGGGCCTCTTCAACAAGGAGCTCATCTCGCACATGAAGAATGGTGCTTGGCTCGTCAACACTGCTCGAGGAGCCATCTGCGTTACCGAGGACATTGTCGAGGCACTCGAGTCCGGCAAGATGCGAGGATACGGTGGTGATGTCTGGTTCCCCCAGCCTGCCCCCAAGGACCATCCCTGGAGAACCATGCGAAACAAGTACGGTGGTGGAAACGCCATGACTCCTCATATCTCTGGCACTTCCATCGATGCCCAGGGCCGATACGCCGAGGGAACAAAGAAGATCCTCGAGGTCTTCTTCTCTGGCAAGCAGGATTACCGACCCCAGGACATTATCTGCATCAACGGTCACTACGGTACCAAGGCTTACGGTGACGACAAGGAGCACAAGGAGCACCAGCTTAAGTAAACATTTTTATAGTAACATCTCATTTTGT
modifications: YALI0F13937g
Turning to B1, the “Fold increase on induction (fold change expression of putative FDH genes upon induction with sodium formate)” value is given as 38.6 fold.

B2: Yali0E15840: putative Y. lipolytica FDH gene; promoter region SEQ ID NO: 10 (1 Kb) and 26 (1.5 Kb) (nucleic acid, listed as Yarrowia lipolytica)
DNA: ATGAAGGTCCTTCTTGTTCTTTACGATGCTGGCTCTCACGCTGCTGACGAGCCCAAGCTCCTTGGATGCACCGAAAACGAGCTCGGTATCCGAGACTGGCTCGAGTCCCAGGGCCACACGCTTGTCACCACCTCTTCCAAGGATGGCGCCGACTCTGTGCTCGACAAGGAAATTGTTGACGCCGACGTTGTCATCACCACCCCCTTCCACCCCGGCTACATCAACAAGGAGCGAATCGACAAGGCCAAGAAGCTCAAGATCTGCATCACCGCCGGAGTCGGCTCGGACCACGTTGATCTCGATGCTGCCAACGCTCGAGATATCGCTGTTCTGGAGGTCACTGGTTCTAATGTCCAATCCGTCGCTGAGCATGTTGTCATGACTATGCTCGTTCTGGTCCGAAACTTTGTCCCCGCCCACGAGCAGATCATTTCCGGCGGGTGGGACGTTGCGGCGGTCGCCAAGGACTCCTACGATCTAGAGGGTAAGGTCATCGGTACCGTGGGAGGCGGCCGAATCGGTCAGCGTGTCCTCAAGCGATGCAAGCCTTTCGACCCCATGGAAATGCTCTACTACGATTACCAGCCCATGCCTGCCGACGTCGAAGAGGAGATTGGCTGCCGACGAGTCGAGTCGCTCGAGCAAATGCTTTCTCTGTGTGATGTTGTCACTATCAACTGCCCTCTGCACGCCTCCACCAAGGGTCTCTTCAACAAGGAGCTCATCTCCCACATGAAGGATGGAGCCTGGCTCGTCAACACTGCTCGAGGAGCCATCTGCGTCACCGAGGACATTGTCGAGGCCCTAGAGTCCGGCAAAATCCGAGGATACGGAGGAGACGTCTGGTTCCCCCAGCCTGCCCCCAAGGACCACCCCTGGAGAACCATGCGAAACAATTACGGTGGTGGAAACGCCATGACTCCCCACATCTCCGGAACCTCCATTGATGCCCAGGGCCGATACGCTGAGGGTACCAAGAAGATCCTCGAGGTCTTTTTCTCGGGCAAGCAGGATTATCGACCCCAGGATATCATCTGTATCAACGGCCATTATGGTACCAAGGCCTACGGTGACGACAAAGAGCATAAGGAGCATCAGCTCAAGTAA
modifications: YALI0E15840g
For B2, the “Fold increase on induction (fold change expression of putative FDH genes upon induction with sodium formate)” value amounted to 5.7 fold.

B3: Yali0B22506: putative Y. lipolytica FDH gene; promoter region SEQ ID NO: 4 (1 Kb) and 20 (1.5 Kb) (nucleic acid, listed as Yarrowia lipolytica)
DNA: ATGAAGATTCTCCTTATCCTTTACGACGCCGGCTCCCACGCTGCTGACGAACCCAAGCTGCTAGGTTGCACCGAGAACGAGCTCGGCATCCGATCCTGGCTCGAGTCCCAGGGCCATACCCTGGTCACCACCTCTTCCAAGGAGGGTGCTGACTCTGTTCTCGACAAGGAGATTGTTGATGCCGATGTTGTCATCACCACTCCCTTCCACCCCGGCTACATCACCCGAGAGCGAATTGCCAAGGCCAAGAACCTCAAGATCTGTGTCACTGCCGGTGTTGGCTCTGACCACGTTGATCTTGCTGCCGCCAACGAGAGAAACATTGCCGTGCTCGAGGTCACTGGTTCCAACGTGACTTCTGTTGCTGAGCACGTTGTCATGACCATGCTTGTTCTTGTCCGAAACTTCGTGCCTGCCAACGAGCAGGTTCGAGGCGGCGGCTGGGACGTTGCCGGTGTTGCCAAGGATTCCTACGATATTGAGGGTAAGGTCATTGGTACCGTCGGAGTCGGCCGAATCGGCAAGCGAGTGCTCCAGCGACTCAAGCCCTTCGACCCCAAGGAGCTGCTCTACTACGACTATCAGCCTCTGTCTGCTGCCGACGAGAAGGAGATTGGCGCCCGACGAGTTGAGAAGCTCGAGGACATGCTTGCCCAGTGTGATGTTGTCACCATCAACTGCCCCCTGCACGAATCCACCAAGGGTCTCTTTAACAAGGAGCTGCTGTCCCACATGAAGAAGGGCGCCTGGCTCGTCAACACCGCTCGAGGAGCCATCTGTGTAAAGGAGGACGTTGCCGCCGCTCTCAAGTCTGGTCAGCTCCGAGGCTACGGCGGAGATGTCTGGTTCCCCCAGCCTGCCCCTGCTGACCACCCCTGGAGAAAGATGGTCAACAAGTACGGTGCCGGTAACGCCATGACCCCCCACATGTCTGGAACCTCTCTGGACGCCCAGGCCCGATACGCTGCTGGTGTCAAGCAGATTCTCGACGAGTTCTTCTCCGGCCGAGAACAGTACCGACCCCAGGACATTATCTGCTACGGTGGTAACTACGGCACCAAGGCCTACGGAGACGACAAGAAGGTCGTCGACAAGAAGTAATCCGTCCAACGTTCTTCTCAGCGCACAGGTACCTATACTACTGGTAGTATCAGGTTAAACCTCTTTTAGTTTAATGATAAGATAAGATAACATACCGT
modifications: YALI0B22506g
Consider B3, for which the “Fold increase on induction (fold change expression of putative FDH genes upon induction with sodium formate)” value is listed as 2.9 fold.

B4: Yali0B19976: putative Y. lipolytica FDH gene; promoter region SEQ ID NO: 9 (1 Kb) and 25 (1.5 Kb) (nucleic acid, listed as Yarrowia lipolytica)
DNA: ATGAAGGTCCTTCTTGTTCTCTACGACGCCGGCTCCCACGCCAAGGATGAGCCCAAGCTACTTGGATGCACTGAAAACGAGCTCGGTATCCGAGACTGGCTCGAGTCCCAGGGCCATACCCTGGTAACTACCTCTTCTAAGGATGGCGCCGACTCCGTTCTCGACAAGGAGATTGTTGATGCCGATGTTGTCATCACTACCCCCTTCCATCCCGGTTACATCAACAAGGAGAGAATTGACAAGGCCAAGAAGCTCAAGATCTGTATCACTGCCGGTGTTGGTTCTGACCATGTCGATCTAGATGCCGCCAACGCCCGAGACATTGCTGTCCTTGAAGTCACTGGCTCCAACGTTCAGTCGGTCGCTGAGCATGTTGTCATGACCATGCTTGTTCTGGTCAGAAACTTCGTCCCTGCTCATGAGCAGATCATTTCTGGTGGCTGGGACGTTGCCGCTGTCGCCAAGGACTCTTACGACCTAGAGGGTAAGGTCATTGGTACAGTTGGAGGTGGGCGAATCGGTCAGCGAGTCCTCAAGCGATGCAAGCCCTTCGACCCCATGGAGATGCTCTACTACGACTACCAGCCCATGCCCGCTGATGTCGAGAAGGAGATTGGCTGTCGACGAGTGGAGTCTCTCGAGGAGATGCTCTCTCTCTGTGACGTTGTCACCATCAACTGTCCTCTGCACGCCTCCACCAAGGGCCTCTTCAACAAGAAGCTCATCTCCCACATGAAGGATGGCGCCTGGCTCGTCAACACCGCTCGAGGAGCTATTTGTGTCACTGAGGACATTGTTGAGGCTCTCGAGTCCGGAAAGATTCGAGGCTACGGTGGTGATGTCTGGTTCCCTCAGCCCGCCCCAAAGGACCACCCCTGGAGAACAATGCGAAACAAGTACGGTGGAGGAAACGCCATGACCCCTCATATCTCTGGTACTTCTATTGATGCCCAAGGCCGATACGCTGAGGGCACCAAGAAAATCCTTGAGGTCTTCTTCTCAGGAAAGCAAGACTACCGACCCCAGGATATCATCTGTATCAACGGTCACTACGGTACCAAGGCTTACGGTGACGACAAGGAGCACAAGGAGCACAAGGAGCACGAGGTCAAATAAGCTATCAGCTCTATAGTACTGTACAGTAGGTACAATAGGATCTTGATATTACAGT
modifications: YALI0B19976g
Consider B4, for which the “Fold increase on induction (fold change expression of putative FDH genes upon induction with sodium formate)” value was found to be 11.4 fold.

Source of the values: patent US20230332166A1, “FORMATE-INDUCIBLE PROMOTERS AND METHODS OF USE THEREOF” (Imperial College Innovations Ltd, priority 2020, published 2023).
